This is an account of results in patent US20250340640A1 (published 2025).

Changes are numbered by the printed parent chain.

T1: recombinant protein TCRVB 6-5 (human, captured on a Biotin CAP sensor chip, so presumably biotinylated; the site is not stated)
T1 construct: also called TCRVβ 6-5; TCRβ V6-5*01
T1 TCR beta: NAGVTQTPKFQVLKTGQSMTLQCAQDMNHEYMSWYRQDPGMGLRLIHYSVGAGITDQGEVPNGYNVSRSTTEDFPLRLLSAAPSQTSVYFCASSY

B1: A-H.52 (scFv)
scFv: QVQLVQSGAEVKKPGSSVKVSCKASGYSFTLGYIHWVRQAPGQGLEWMGWFFPGSGNIKYNEKFKGRVTITADTSTSTAYMELSSLRSEDTAVYYCAGSYYSYDVLDYWGQGTTVTVSSGGGGSGGGGSGGGGSGGGGSDIQMTQSPSFLSASVGDRVTITCKASQNVGINVVWHQQKPGKAPKALIYSSSHRYSGVPSRFSGSGSGTEFTLTISSLQPEDFATYFCQQFKSYPLTFGQGTKLEIK
notes: also called phage clone; monovalent scFv
B2: A-H.53 (scFv)
scFv: B1 scFv with T30R, G32T
notes: Described only as a phage clone; also called phage clone
B3: A-H.54 (scFv)
scFv: B1 scFv with T30H, L31N, G32W
notes: as for B2

The target in one assay is T1, recombinant protein TCRVB 6-5. Briefly: SPR, compared with BJM0277. The method, then: (§1) TCRVB 6-5 at 5 μg/mL was immobilized on a Biotin CAP Series S Sensor Chip to 60 RU. A-H.52 was diluted to 50 nM and then serially diluted two fold. Association was 120 seconds, dissociation was 300 seconds. This assay was run in 1×HBS-EP+ Buffer pH 7.4 and 25C. The data was fit using a 1:1 binding model. A-H.52 is a phage clones and is a monovalent scFv. A-H.52 has two mutations on CDRH1.
(§2) TCRVB 6-5 at 5 ug/mL was immobilized on a Biotin CAP Series S Sensor Chip to 60 RU. A-H.53 was diluted to 50 nM and then serially diluted two fold. Association was 120 seconds, dissociation was 300 seconds. This assay was run in 1×HBS-EP+ Buffer pH 7.4 and 25C. The data was fit using a 1:1 binding model. A-H.53 (phage clone) affinity is in the pM range (Table 16).
(§3) TCRVB 6-5 at 5 μg/mL was immobilized on a Biotin CAP Series S Sensor Chip to 60 RU. A-H.54 was diluted to 50 nM and then serially diluted two fold. Association was 120 seconds, dissociation was 300 seconds. This assay was run in 1×HBS-EP+ Buffer pH 7.4 and 25C. The data was fit using a 1:1 binding model.
In general terms: SPR reads the build-up and loss of mass on a sensor chip optically.
As for B1, the “fold greater affinity than BJM0277” value is 20 fold.
Same read-out and setting: for B2 the value was 200 fold; for B3, 17 fold.

For a further assay the target is unchanged. Briefly: SPR, TCRVB 6-5 captured on Biotin CAP Series S chip, 1:1 model, 25C. The method, then: as §1, §2, §3
What is called Kd is the concentration at which binding is half-saturated. B1: the Kd was found to be 1.76 nM.
In the case of B2, the Kd came to 0.165 nM.
On to B3, for which the dissociation constant Kd stood at 2.22 nM.
